From patent EP4659810A1 come the findings set out here.

Assay [1] concerns the target VP1 pentamer of BKV genotype I (truncated VP1, residues 31 to 301, C104S) (BK virus genotype I (Dunlop sequence)) (UniProt P03088). The assay is described as follows: BLI (OctetRED96e), biotinylated VP1 pentamer on streptavidin sensor, mAb 0 to 40 nM in solution.
Assay [2] addresses VP1 on BKV genotype II pseudovirions (GBR-12; AB263920) (BK virus genotype II (GBR-12; AB263920)) (UniProt P14996). The assay is described as follows: cell-based or functional assay.
In assay [3] the target is VP1 on entire replicative virions of BKV genotype II (patient's isolate) (BK virus genotype II). The assay is described as follows: cell-based or functional assay.
Assay [4] has as its target VP1 on entire replicative virions of BK virus genotype Ia (Dunlop strain; ATCC VR-837) (BK virus genotype Ia (Dunlop strain)) (UniProt P03088). The assay is described as follows: cell-based or functional assay.
Assay [5] addresses VP1 on BKV genotype Ia pseudovirions (BK-D; JF894228) (BK virus genotype Ia (BK-D; JF894228)) (UniProt P03088). Put plainly: cell-based or functional assay.

MTX005 from Memo Therapeutics AG (referred as 319C07 in WO2021/250097) (antibody), sequence (VH): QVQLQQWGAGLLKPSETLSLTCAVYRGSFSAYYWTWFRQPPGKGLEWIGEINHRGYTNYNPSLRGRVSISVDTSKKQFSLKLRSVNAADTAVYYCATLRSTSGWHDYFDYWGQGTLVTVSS
MTX005 from Memo Therapeutics AG (referred as 319C07 in WO2021/250097) (antibody), sequence (VL): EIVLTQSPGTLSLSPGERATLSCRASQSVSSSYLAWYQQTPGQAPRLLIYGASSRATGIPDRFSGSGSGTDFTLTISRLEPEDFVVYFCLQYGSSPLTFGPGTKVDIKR

For “MTX005 from Memo Therapeutics AG (referred as 319C07 in WO2021/250097) (antibody)”, in assay [1], the Kd was 0.0179 µM. Further, the results for the IC50, neutralization of BKV pseudovirions (luciferase, 293TT cells) in assay [2] and in assay [5] were 0.08 ng/mL and 0.03 ng/mL, respectively. The IC50, neutralization of fully replicative BKV virions (MRC5 cells) turned out to be 0.03 ng/mL in assay [3] and 0.05 ng/mL in assay [4].

A word on the Kd: it is the concentration at which binding is half-saturated. The low end stands for higher affinity, the high end for lower affinity.
